The source of these data is patent publication US20240052045A1 (VIB VZW, published 2024).

The target of assay [1] is T1, murine CCR8 (mouse, UniProt P56484 1-353).
T1 construct: Transiently expressed on HEK293/HEK293T cells or endogenously expressed on BW5147 cells; also called mouse CCR8; mCCR8
T1 sequence: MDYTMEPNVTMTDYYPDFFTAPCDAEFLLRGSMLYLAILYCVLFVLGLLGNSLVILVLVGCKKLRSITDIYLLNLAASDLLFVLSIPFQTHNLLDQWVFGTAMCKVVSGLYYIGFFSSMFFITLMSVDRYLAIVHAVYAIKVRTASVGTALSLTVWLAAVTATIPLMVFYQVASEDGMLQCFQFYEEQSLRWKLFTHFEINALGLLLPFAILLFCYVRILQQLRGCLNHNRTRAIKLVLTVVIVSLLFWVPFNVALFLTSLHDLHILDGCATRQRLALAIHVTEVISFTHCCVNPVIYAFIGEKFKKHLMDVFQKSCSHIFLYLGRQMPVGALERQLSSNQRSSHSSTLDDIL
Kind of assay: flow cytometry on cells transfected with mouse CCR8. Background: In flow cytometry, cells or beads pass a laser one at a time.

The target in assay [2] is T2, human CCR8 (human, UniProt P51685 1-355).
T2 construct: Expressed on HEK293, HEK293T or CHO-K1 cells, stably or transiently transfected; also called hCCR8
Kind of assay: competitive binding, flow cytometry.

The target in assay [3] is T2, human CCR8. Kind of assay: flow cytometry competition with parental VHH-64. The text has this: (§1) Multiple His6 tagged VHH variants were thus generated and evaluated by flow cytometry for their ability to compete for binding to hCCR8 with their FLAG3-His6 tagged parental counterpart (VHH-57, VHH-64 or VHH-67).
Assay [4] has as its target T2, human CCR8. Kind of assay: flow cytometry competition with parental VHH-67.
Excerpt: as §1

Assay [5] addresses T2, human CCR8. The assay can be described thus: flow cytometry on HEK293 cells with hCCR8 and chimeric/deleted variants.
Assay [6] deals with T1, murine CCR8. The assay can be described thus: flow cytometry on HEK293T cells transiently transfected with mouse CCR8.
The target in assay [7] is T2, human CCR8. Kind of assay: flow cytometry competition with parental VHH-57.
Excerpt: as §1

T2 sequence (P51685 whole entry): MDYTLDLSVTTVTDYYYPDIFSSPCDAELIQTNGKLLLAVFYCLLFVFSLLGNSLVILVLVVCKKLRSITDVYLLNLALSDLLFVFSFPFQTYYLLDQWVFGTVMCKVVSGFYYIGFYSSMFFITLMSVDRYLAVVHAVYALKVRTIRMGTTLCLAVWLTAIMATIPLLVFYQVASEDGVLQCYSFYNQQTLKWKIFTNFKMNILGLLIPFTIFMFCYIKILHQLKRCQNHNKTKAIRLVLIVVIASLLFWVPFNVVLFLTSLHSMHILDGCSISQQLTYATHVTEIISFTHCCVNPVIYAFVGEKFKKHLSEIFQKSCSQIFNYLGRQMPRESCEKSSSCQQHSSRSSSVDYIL

B1: VHH-64 (VHH)
VHH: EVQLVESGGGLVQPGGSLRLSCAVSGGIRSIIPAGWYRQVPGKQRELVAAISTAGSADYADSVKGRFTISRDNTKNTAYLQMNSLRPEDTAVYYCNGRQTGWRTRVDYWGQGTLVTVSS
notes: Monovalent VHH purified from E. coli periplasm with C-terminal FLAG3 and His6 tags; not shown: C-terminal FLAG3 and His6 tags
With B1, the binding result in assay [1] and in assay [2] was “binds” each time.

B2: VHH-84 (VHH)
VHH: DVQLVESGGGLVQPGGSLRLSCAVSGGIRSIIPAGWYRQAPGKQRELVAAISTAGSADYADSVKGRFTISRDNAKNTVYLQMNSLRPEDTAVYYCNGRQTGWRTRVDYWGQGTLVTVSS
notes: also called VHH-64 with mutations E1D, V40A, T74A, A78V; not shown: C-terminal His6 tag (no FLAG3)
With B2, the binding result in assay [3] was “binds”.

B3: VHH-120 (VHH)
VHH: DVQLVESGGGLVQPGGSLRLSCTVSGSIFSLRTVGWYRQAPGKQRELVATISAGGATDYADSVKGRFTISRDNAKNTVYLQMNSLRPEDTAVYYCYAQDSYKIYKSRYTQDYWGQGTLVTVSS
notes: also called VHH-67 with mutations E1D, V65G, V69I, G74A; not shown: C-terminal His6 tag (no FLAG3)
With B3, the binding result in assay [4] was “binds”.

B4: VHH-122 (VHH)
VHH: DVQLVESGGGLVQPGGSLRLSCTVSGSIFSLRTVGWYRQAPGKQRELVATISAGGATDYADSVKGRFTISRDNAKNTVYLQMNSLRPEDTAVYYCYAQDTYKIYKSRYTQDYWGQGTLVTVSS
notes: also called VHH-67 with E1D, V65G, V69I, G74A, S100T; not shown: C-terminal His6 tag (no FLAG3)
For B4, the binding result in assay [4] was “binds”.

B5: VHH-67 (VHH)
VHH: EVQLVESGGGLVQPGGSLRLSCTVSGSIFSLRTVGWYRQAPGKQRELVATISAGGATDYADSVKVRFTVSRDNGKNTVYLQMNSLRPEDTAVYYCYAQDSYKIYKSRYTQDYWGQGTLVTVSS
notes: as for B1
As for B5, the binding result in assay [5] and in assay [6] was “binds” each time.

B6: VHH-121 (VHH)
VHH: DVQLVESGGGLVQPGGSLRLSCTVSGSIFSLRTVGWYRQAPGKQRELVATISAGGATDYADSVKGRFTISRDNAKNTVYLQMNSLRPEDTAVYYCYAQQSYKIYKSRYTQDYWGQGTLVTVSS
notes: also called VHH-67 with E1D, V65G, V69I, G74A, D99Q; not shown: C-terminal His6 tag (no FLAG3)
Regarding B6, in assay [4], the binding result was “binds”.

B7: VHH-57 (VHH)
VHH: EVQLVESGGGLVQPGGSLRLSCTASGNIFSLLDMKWYRQAPGKQRELVADITSGGSTNYADPVKGRFTISRDNAKNTVYLQMNSLRPEDTAVYYCNAAPYYWGAYRRQESWGQGTLVTVSS
notes: as for B1
For B7, the binding result in assay [5] and in assay [6] was “binds” in each case.

B8: VHH-119 (VHH)
VHH: DVQLVESGGGLVQPGGSLRLSCTASGSIFSLLDMKWYRQAPGKQRELVADITSGGSTNYADSVKGRFTISRDNAKNTVYLQMNSLRPEDTAVYYCNAAPYYWGAYRRQESWGQGTLVTVSS
notes: also called VHH-57 with mutations E1D, N27S, P62S; not shown: C-terminal His6 tag (no FLAG3)
As to B8, the binding result in assay [7] is given as “binds”.
